Article PMC10540216, “Activity Guided Azide-methyllysine Photo-trapping for Substrate Profiling of Lysine Demethylases” (Journal of the American Chemical Society, 2023)

B1: DSG1_HUMAN (protein, UniProt Q02413 50-1049, looked up)
Desmoglein-1: EWIKFAAACREGEDNSKRNPIAKIHSDCAANQQVTYRISGVGIDQPPYGIFVINQKTGEINITSIVDREVTPFFIIYCRALNSMGQDLERPLELRVRVLDINDNPPVFSMATFAGQIEENSNANTLVMILNATDADEPNNLNSKIAFKIIRQEPSDSPMFIINRNTGEIRTMNNFLDREQYGQYALAVRGSDRDGGADGMSAECECNIKILDVNDNIPYMEQSSYTIEIQENTLNSNLLEIRVIDLDEEFSANWMAVIFFISGNEGNWFEIEMNERTNVGILKVVKPLDYEAMQSLQLSIGVRNKAEFHHSIMSQYKLKASAISVTVLNVIEGPVFRPGSKTYVVTGNMGSNDKVGDFVATDLDTGRPSTTVRYVMGNNPADLLAVDSRTGKLTLKNKVTKEQYNMLGGKYQGTILSIDDNLQRTCTGTININIQSFGNDDRTNTEPNTKITTNTGRQESTSSTNYDTSTTSTDSSQVYSSEPGNGAKDLLSDNVHFGPAGIGLLIMGFLVLGLVPFLMICCDCGGAPRSAAGFEPVPECSDGAIHSWAVEGPQPEPRDITTVIPQIPPDNANIIECIDNSGVYTNEYGGREMQDLGGGERMTGFELTEGVKTSGMPEICQEYSGTLRRNSMRECREGGLNMNFMESYFCQKAYAYADEDEGRPSNDCLLIYDIEGVGSPAGSVGCCSFIGEDLDDSFLDTLGPKFKKLADISLGKESYPDLDPSWPPQSTEPVCLPQETEPVVSGHPPISPHFGTTTVISESTYPSGPGVLHPKPILDPLGYGNVTVTESYTTSDTLKPSVHVHDNRPASNVVVTERVVGPISGADLHGMLEMPDLRDGSNVIVTERVIAPSSSLPTSLTIHHPRESSNVVVTERVIQPTSGMIGSLSMHPELANAHNVIVTERVVSGAGVTGISGTTGISGGIGSSGLVGTSMGAGSGALSGAGISGGGIGLSSLGGTASIGHMRSSSDHHFNQTIGSASPSTARSRITKYSTVQYSK
B2: CBPD_HUMAN (protein, UniProt O75976 32-1380, looked up)
Carboxypeptidase D: AHIKKAEATTTTTSAGAEAAEGQFDRYYHEEELESALREAAAAGLPGLARLFSIGRSVEGRPLWVLRLTAGLGSLIPEGDAGPDAAGPDAAGPLLPGRPQVKLVGNMHGDETVSRQVLIYLARELAAGYRRGDPRLVRLLNTTDVYLLPSLNPDGFERAREGDCGFGDGGPSGASGRDNSRGRDLNRSFPDQFSTGEPPALDEVPEVRALIEWIRRNKFVLSGNLHGGSVVASYPFDDSPEHKATGIYSKTSDDEVFKYLAKAYASNHPIMKTGEPHCPGDEDETFKDGITNGAHWYDVEGGMQDYNYVWANCFEITLELSCCKYPPASQLRQEWENNRESLITLIEKVHIGVKGFVKDSITGSGLENATISVAGINHNITTGRFGDFYRLLVPGTYNLTVVLTGYMPLTVTNVVVKEGPATEVDFSLRPTVTSVIPDTTEAVSTASTVAIPNILSGTSSSYQPIQPKDFHHHHFPDMEIFLRRFANEYPNITRLYSLGKSVESRELYVMEISDNPGVHEPGEPEFKYIGNMHGNEVVGRELLLNLIEYLCKNFGTDPEVTDLVHNTRIHLMPSMNPDGYEKSQEGDSISVIGRNNSNNFDLNRNFPDQFVQITDPTQPETIAVMSWMKSYPFVLSANLHGGSLVVNYPFDDDEQGLATYSKSPDDAVFQQIALSYSKENSQMFQGRPCKNMYPNEYFPHGITNGASWYNVPGGMQDWNYLQTNCFEVTIELGCVKYPLEKELPNFWEQNRRSLIQFMKQVHQGVRGFVLDATDGRGILNATISVAEINHPVTTYKTGDYWRLLVPGTYKITASARGYNPVTKNVTVKSEGAIQVNFTLVRSSTDSNNESKKGKGASSSTNDASDPTTKEFETLIKDLSAENGLESLMLRSSSNLALALYRYHSYKDLSEFLRGLVMNYPHITNLTNLGQSTEYRHIWSLEISNKPNVSEPEEPKIRFVAGIHGNAPVGTELLLALAEFLCLNYKKNPAVTQLVDRTRIVIVPSLNPDGRERAQEKDCTSKIGQTNARGKDLDTDFTNNASQPETKAIIENLIQKQDFSLSVALDGGSMLVTYPYDKPVQTVENKETLKHLASLYANNHPSMHMGQPSCPNKSDENIPGGVMRGAEWHSHLGSMKDYSVTYGHCPEITVYTSCCYFPSAARLPSLWADNKRSLLSMLVEVHKGVHGFVKDKTGKPISKAVIVLNEGIKVQTKEGGYFHVLLAPGVHNIIAIADGYQQQHSQVFVHHDAASSVVIVFDTDNRIFGLPRELVVTVSGATMSALILTACIIWCICSIKSNRHKDGFHRLRQHHDEYEDEIRMMSTGSKKSLLSHEFQDETDTEEETLYSSKH
B3: HACD3_HUMAN (protein, UniProt Q9P035 1-362, looked up)
Very-long-chain …: MENQVLTPHVYWAQRHRELYLRVELSDVQNPAISITENVLHFKAQGHGAKGDNVYEFHLEFLDLVKPEPVYKLTQRQVNITVQKKVSQWWERLTKQEKRPLFLAPDFDRWLDESDAEMELRAKEEERLNKLRLESEGSPETLTNLRKGYLFMYNLVQFLGFSWIFVNLTVRFCILGKESFYDTFHTVADMMYFCQMLAVVETINAAIGVTTSPVLPSLIQLLGRNFILFIIFGTMEEMQNKAVVFFVFYLWSAIEIFRYSFYMLTCIDMDWKVLTWLRYTLWIPLYPLGCLAEAVSVIQSIPIFNETGRFSFTLPYPVKIKVRFSFFLQIYLIMIFLGLYINFRHLYKQRRRRYGQKKKKIH
B4: DDX42_HUMAN (protein, UniProt Q86XP3 1-938, looked up)
ATP-dependent RNA helicase …: MNWNKGGPGTKRGFGFGGFAISAGKKEEPKLPQQSHSAFGATSSSSGFGKSAPPQLPSFYKIGSKRANFDEENAYFEDEEEDSSNVDLPYIPAENSPTRQQFHSKPVDSDSDDDPLEAFMAEVEDQAARDMKRLEEKDKERKNVKGIRDDIEEEDDQEAYFRYMAENPTAGVVQEEEEDNLEYDSDGNPIAPTKKIIDPLPPIDHSEIDYPPFEKNFYNEHEEITNLTPQQLIDLRHKLNLRVSGAAPPRPGSSFAHFGFDEQLMHQIRKSEYTQPTPIQCQGVPVALSGRDMIGIAKTGSGKTAAFIWPMLIHIMDQKELEPGDGPIAVIVCPTRELCQQIHAECKRFGKAYNLRSVAVYGGGSMWEQAKALQEGAEIVVCTPGRLIDHVKKKATNLQRVSYLVFDEADRMFDMGFEYQVRSIASHVRPDRQTLLFSATFRKKIEKLARDILIDPIRVVQGDIGEANEDVTQIVEILHSGPSKWNWLTRRLVEFTSSGSVLLFVTKKANAEELANNLKQEGHNLGLLHGDMDQSERNKVISDFKKKDIPVLVATDVAARGLDIPSIKTVINYDVARDIDTHTHRIGRTGRAGEKGVAYTLLTPKDSNFAGDLVRNLEGANQHVSKELLDLAMQNAWFRKSRFKGGKGKKLNIGGGGLGYRERPGLGSENMDRGNNNVMSNYEAYKPSTGAMGDRLTAMKAAFQSQYKSHFVAASLSNQKAGSSAAGASGWTSAGSLNSVPTNSAQQGHNSPDSPVTSAAKGIPGFGNTGNISGAPVTYPSAGAQGVNNTASGNNSREGTGGSNGKRERYTENRGSSRHSHGETGNRHSDSPRHGDGGRHGDGYRHPESSSRHTDGHRHGENRHGGSAGRHGENRGANDGRNGESRKEAFNRESKMEPKMEPKVDSSKMDKVDSKTDKTADGFAVPEPPKRKKSRWDS
B5: SF3A1_HUMAN (protein, UniProt Q15459 2-793, looked up)
Splicing factor 3A subunit 1: PAGPVQAVPPPPPVPTEPKQPTEEEASSKEDSAPSKPVVGIIYPPPEVRNIVDKTASFVARNGPEFEARIRQNEINNPKFNFLNPNDPYHAYYRHKVSEFKEGKAQEPSAAIPKVMQQQQQTTQQQLPQKVQAQVIQETIVPKEPPPEFEFIADPPSISAFDLDVVKLTAQFVARNGRQFLTQLMQKEQRNYQFDFLRPQHSLFNYFTKLVEQYTKILIPPKGLFSKLKKEAENPREVLDQVCYRVEWAKFQERERKKEEEEKEKERVAYAQIDWHDFVVVETVDFQPNEQGNFPPPTTPEELGARILIQERYEKFGESEEVEMEVESDEEDDKQEKAEEPPSQLDQDTQVQDMDEGSDDEEEGQKVPPPPETPMPPPLPPTPDQVIVRKDYDPKASKPLPPAPAPDEYLVSPITGEKIPASKMQEHMRIGLLDPRWLEQRDRSIREKQSDDEVYAPGLDIESSLKQLAERRTDIFGVEETAIGKKIGEEEIQKPEEKVTWDGHSGSMARTQQAAQANITLQEQIEAIHKAKGLVPEDDTKEKIGPSKPNEIPQQPPPPSSATNIPSSAPPITSVPRPPTMPPPVRTTVVSAVPVMPRPPMASVVRLPPGSVIAPMPPIIHAPRINVVPMPPSAPPIMAPRPPPMIVPTAFVPAPPVAPVPAPAPMPPVHPPPPMEDEPTSKKLKTEDSLMPEEEFLRRNKGPVSIKVQVPNMQDKTEWKLNGQVLVFTLPLTDQVSVIKVKIHEATGMPAGKQKLQYEGIFIKDSNSLAYYNMANGAVIHLALKERGGRKK
B6: CYFP1_HUMAN (protein, UniProt Q7L576 1-1253, looked up)
Cytoplasmic FMR1-interacting …: MAAQVTLEDALSNVDLLEELPLPDQQPCIEPPPSSLLYQPNFNTNFEDRNAFVTGIARYIEQATVHSSMNEMLEEGQEYAVMLYTWRSCSRAIPQVKCNEQPNRVEIYEKTVEVLEPEVTKLMNFMYFQRNAIERFCGEVRRLCHAERRKDFVSEAYLITLGKFINMFAVLDELKNMKCSVKNDHSAYKRAAQFLRKMADPQSIQESQNLSMFLANHNKITQSLQQQLEVISGYEELLADIVNLCVDYYENRMYLTPSEKHMLLKVMGFGLYLMDGSVSNIYKLDAKKRINLSKIDKYFKQLQVVPLFGDMQIELARYIKTSAHYEENKSRWTCTSSGSSPQYNICEQMIQIREDHMRFISELARYSNSEVVTGSGRQEAQKTDAEYRKLFDLALQGLQLLSQWSAHVMEVYSWKLVHPTDKYSNKDCPDSAEEYERATRYNYTSEEKFALVEVIAMIKGLQVLMGRMESVFNHAIRHTVYAALQDFSQVTLREPLRQAIKKKKNVIQSVLQAIRKTVCDWETGHEPFNDPALRGEKDPKSGFDIKVPRRAVGPSSTQLYMVRTMLESLIADKSGSKKTLRSSLEGPTILDIEKFHRESFFYTHLINFSETLQQCCDLSQLWFREFFLELTMGRRIQFPIEMSMPWILTDHILETKEASMMEYVLYSLDLYNDSAHYALTRFNKQFLYDEIEAEVNLCFDQFVYKLADQIFAYYKVMAGSLLLDKRLRSECKNQGATIHLPPSNRYETLLKQRHVQLLGRSIDLNRLITQRVSAAMYKSLELAIGRFESEDLTSIVELDGLLEINRMTHKLLSRYLTLDGFDAMFREANHNVSAPYGRITLHVFWELNYDFLPNYCYNGSTNRFVRTVLPFSQEFQRDKQPNAQPQYLHGSKALNLAYSSIYGSYRNFVGPPHFQVICRLLGYQGIAVVMEELLKVVKSLLQGTILQYVKTLMEVMPKICRLPRHEYGSPGILEFFHHQLKDIVEYAELKTVCFQNLREVGNAILFCLLIEQSLSLEEVCDLLHAAPFQNILPRVHVKEGERLDAKMKRLESKYAPLHLVPLIERLGTPQQIAIAREGDLLTKERLCCGLSMFEVILTRIRSFLDDPIWRGPLPSNGVMHVDECVEFHRLWSAMQFVYCIPVGTHEFTVEQCFGDGLHWAGCMIIVLLGQQRRFAVLDFCYHLLKVQKHDGKDEIIKNVPLKKMVERIRKFQILNDEIITILDKYLKSGDGEGTPVEHVRCFQPPIHQSLASS

System: KDM4A-I71AzF
Experiment: CASI: photo-crosslinking with HEK293T cell extracts, StrepTactin enrichment and LC-MS/MS proteomics;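 also: lysates from HEK293T cells pretreated with a KDM4 inhibitor to raise proteome methylation, affinity-purified after ±UV, gel-resolved, trypsin-digested, with exclusive unique peptides per protein averaged per condition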
Type: binding, human
Settings: sheet "Final results but with 0.01"

Row | Molecule | Fold change (+UV/-UV)
1 | B1 | 2
2 | B2 | 1
3 | B3 | 0.6667
4 | B4 | 0.6
5 | B5 | 0
6 | B6 | 0.6
